Publication PMC11490574, “IGF2BP1 phosphorylation in the disordered linkers regulates ribonucleoprotein condensate formation and RNA metabolism”

What was measured:
IGF2BP1 Y396E [1] = target: T1, IGF2BP1 Y396E (UniProt Q9NZI8 1-577, Y396E); assay: EMSA; EMSA: 25 mM HEPES pH 7.3, 150 mM NaCl, 5% glycerol, 2 mM EDTA, 10 ug/mL heparin, 0.5 mM TCEP, on ice, gel 4 C; FA: 25 mM HEPES 7.3, 150 mM NaCl, 0.025% Tween 20, 10 ug/mL heparin, 2 mM EDTA, 0.5 mM TCEP, 10 nM RNA, 20 C; details: protein: recombinant; tags: GST removed by 3C
IGF2BP1 wild-type [2] = target: T2, IGF2BP1 wild-type (UniProt Q9NZI8 1-577); assay: as above; details: protein: recombinant; tags: GST removed by 3C
[3] = target: T3, IGF2BP1 KH3-4dR (KH3GEEG-KH4GEEG) (UniProt Q9NZI8 1-577, K423E;K424E;K505E;G506E); assay: as above; details: protein: recombinant; tags: GST removed by 3C
IGF2BP1 S181E [4] = target: T4, IGF2BP1 S181E (UniProt Q9NZI8 1-577, S181E); assay: as above; details: protein: recombinant; tags: GST removed by 3C
IGF2BP1 RQ [5] = target: T5, IGF2BP1 RQ (UniProt Q9NZI8 1-577, R167Q;R168Q;R174Q;R178Q); assay: as above; details: protein: recombinant; tags: GST removed by 3C
IGF2BP1 wild-type [6] = target: T2, IGF2BP1 wild-type; assay: fluorescence anisotropy; EMSA: 25 mM HEPES pH 7.3, 150 mM NaCl, 5% glycerol, 2 mM EDTA, 10 ug/mL heparin, 0.5 mM TCEP, on ice, gel 4 C; FA: 25 mM HEPES 7.3, 150 mM NaCl, 0.025% Tween 20, 10 ug/mL heparin, 2 mM EDTA, 0.5 mM TCEP, 10 nM RNA, 20 C; details: protein: recombinant; tags: GST removed by 3C; label: 5'-fluorescein
IGF2BP1 KH1-4 = IGF2BP1 KH1-4 (UniProt Q9NZI8 195-553); assay: as above; details: protein: recombinant; tags: His removed by 3C; label: 5'-fluorescein
IGF2BP1 KH3-4 = IGF2BP1 KH3-4 (UniProt Q9NZI8 405-553); assay: as above; details: protein: recombinant; tags: His removed by 3C; label: 5'-fluorescein
IGF2BP1 Y396E [7] = target: T1, IGF2BP1 Y396E; assay: as above; details: protein: recombinant; tags: GST removed by 3C; label: 5'-fluorescein
[8] = target: T3, IGF2BP1 KH3-4dR (KH3GEEG-KH4GEEG); assay: as above; details: protein: recombinant; tags: GST removed by 3C; label: 5'-fluorescein
IGF2BP1 S181E [9] = target: T4, IGF2BP1 S181E; assay: as above; details: protein: recombinant; tags: GST removed by 3C; label: 5'-fluorescein
IGF2BP1 RQ [10] = target: T5, IGF2BP1 RQ; assay: as above; details: protein: recombinant; tags: GST removed by 3C; label: 5'-fluorescein

T1 sequence (Q9NZI8 whole entry Y396E): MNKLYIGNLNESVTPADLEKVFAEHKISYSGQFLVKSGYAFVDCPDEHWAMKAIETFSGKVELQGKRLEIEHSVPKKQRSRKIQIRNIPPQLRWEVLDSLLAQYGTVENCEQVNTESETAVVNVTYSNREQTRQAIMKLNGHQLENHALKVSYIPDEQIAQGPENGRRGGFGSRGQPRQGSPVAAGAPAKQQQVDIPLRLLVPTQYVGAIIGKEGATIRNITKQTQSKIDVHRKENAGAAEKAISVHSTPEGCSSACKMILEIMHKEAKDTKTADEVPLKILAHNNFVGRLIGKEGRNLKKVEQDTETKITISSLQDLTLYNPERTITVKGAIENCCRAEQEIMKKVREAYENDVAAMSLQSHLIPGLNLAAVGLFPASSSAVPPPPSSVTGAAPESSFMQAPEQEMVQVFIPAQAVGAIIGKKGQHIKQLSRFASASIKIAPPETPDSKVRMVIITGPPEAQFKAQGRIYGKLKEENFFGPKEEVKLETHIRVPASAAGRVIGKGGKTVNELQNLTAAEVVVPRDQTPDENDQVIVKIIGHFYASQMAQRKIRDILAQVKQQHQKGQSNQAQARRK
T4 sequence (Q9NZI8 whole entry S181E): as the sequence (Q9NZI8 whole entry Y396E) above, with S181E, E396Y counted along it
T2 sequence (Q9NZI8 whole entry): as the sequence (Q9NZI8 whole entry Y396E) above, with E396Y counted along it
T3 sequence (Q9NZI8 whole entry K423E/K424E/K505E/G506E): as the sequence (Q9NZI8 whole entry Y396E) above, with E396Y, K423E, K424E, K505E, G506E counted along it
T5 sequence (Q9NZI8 whole entry R167Q/R168Q/R174Q/R178Q): as the sequence (Q9NZI8 whole entry Y396E) above, with R167Q, R168Q, R174Q, R178Q, E396Y counted along it
IGF2BP1 KH1-4, sequence (Q9NZI8 195-553): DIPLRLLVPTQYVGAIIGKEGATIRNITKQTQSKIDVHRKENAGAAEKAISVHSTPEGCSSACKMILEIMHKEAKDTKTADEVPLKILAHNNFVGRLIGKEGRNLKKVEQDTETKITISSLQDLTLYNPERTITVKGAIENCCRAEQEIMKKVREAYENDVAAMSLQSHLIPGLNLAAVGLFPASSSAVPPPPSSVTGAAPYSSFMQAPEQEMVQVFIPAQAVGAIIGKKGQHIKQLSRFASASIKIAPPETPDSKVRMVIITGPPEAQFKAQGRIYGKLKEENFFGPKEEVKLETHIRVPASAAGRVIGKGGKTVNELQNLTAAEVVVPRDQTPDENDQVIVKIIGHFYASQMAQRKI
IGF2BP1 KH3-4, sequence (Q9NZI8 405-553): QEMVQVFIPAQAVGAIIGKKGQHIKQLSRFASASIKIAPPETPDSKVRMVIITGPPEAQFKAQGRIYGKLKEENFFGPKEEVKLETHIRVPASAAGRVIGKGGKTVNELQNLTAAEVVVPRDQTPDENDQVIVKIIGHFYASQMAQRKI

Binder | apparent K (half saturation) (IGF2BP1 Y396E [1]) [nM] | apparent K (half saturation) (IGF2BP1 wild-type [2]) [nM] | apparent K (half saturation) [3] [nM] | apparent K (half saturation) (IGF2BP1 S181E [4]) [nM] | binding result (IGF2BP1 RQ [5]) | apparent K (half saturation) (IGF2BP1 wild-type [6]) [nM] | apparent K (half saturation) (IGF2BP1 KH1-4) [nM] | apparent K (half saturation) (IGF2BP1 KH3-4) [nM] | apparent K (half saturation) (IGF2BP1 Y396E [7]) [nM] | apparent K (half saturation) [8] [nM] | apparent K (half saturation) (IGF2BP1 S181E [9]) [nM] | binding result (IGF2BP1 RQ [10])
XBP1 201 nt (ssRNA) RNA: UCUCAAAUCUGCUUUCAUCCAGCCACUGCCCAAAGCCAUCUUCCUGCCUACUGGAUGCUUACAGUGACUGUGGAUACGGGGGUUCCCUUUCCCCAUUCAGUGACAUGUCCUCUCUGCUUGGUGUAAACCAUUCUUGGGAGGACACUUUUGCCAAUGAACUCUUUCCCCAGCUGAUUAGUGUCUAAGGAAUGAUCCAAUACU | 22.9 | 41 | 64.7 | 17.1 | binds |  |  |  |  |  |  | 
ACCGGACUGUUACCAACACCCACACCCC (ssRNA) [ACTB 28 nt] |  |  |  |  |  | 68.5 | 75.2 | 1570 |  |  |  | 
EIF2A 200 nt (ssRNA) RNA: AGAAAAUUCAGAAAGAAACAGCCCUUCUCCAGGAGCUGGAAGAUUUGGAAUUGGGUAUUUAAAGAUUCACGGAAAGCAAGUUGAUGACCAGAAAUCAGUGCAAACACAUCUUCUGUUAAACCCAUUGGUAUACACAGAAUAUUCCUGUGCCCACACUUAAUGUCAAUCUAUAAUUUUAACCAUUUAUCCAAGAUUCUACU | 40.2 | 48.2 |  | 35.4 |  |  |  |  |  |  |  | 
MYC 191 nt (ssRNA) RNA: UGCGUGACCAGAUCCCGGAGUUGGAAAACAAUGAAAAGGCCCCCAAGGUAGUUAUCCUUAAAAAAGCCACAGCAUACAUCCUGUCCGUCCAAGCAGAGGAGCAAAAGCUCAUUUCUGAAGAGGACUUGUUGCGGAAACGACGAGAACAGUUGAAACACAAACUUGAACAGCUACGGAACUCUUGUGCGUAA | 16.7 | 14.4 |  | 17.8 |  |  |  |  |  |  |  | 
GUGACAUGUCCUCUCUGCUUGGUGUAAACCAUUCUU (ssRNA) [XBP1 36 nt] |  |  |  |  |  | 312 | 204 | ~1500 | 423 | 186 | 310 | binds
